Assay [1] deals with T1, Cx43 hemichannels of primary human osteocytes (human, UniProt P17302 2-382).
T1 construct: whole, on cells; The assay target is the whole cell (primary human osteocytes); also called connexin 43; gap junction alpha-1 protein
Put plainly: cell ELISA on primary human osteocytes. In general terms: An ELISA detects its analyte on a solid surface through an enzyme-linked reagent.

Assay [2] has as its target T2, Cx43 hemichannels of mouse osteocytes (MLO-Y4 cells) (mouse, UniProt P23242 2-382). Put plainly: cell-based or functional assay.
The target of assay [3] is T1, Cx43 hemichannels of primary human …. Kind of assay: cell-based or functional assay.
Assay [4] concerns the target T2, Cx43 hemichannels of mouse osteocytes …. Kind of assay: cell ELISA on mouse osteocytes (MOL-Y4).

Where only a bound is given, the exact number is not on record here.

T2 sequence (P23242 2-382): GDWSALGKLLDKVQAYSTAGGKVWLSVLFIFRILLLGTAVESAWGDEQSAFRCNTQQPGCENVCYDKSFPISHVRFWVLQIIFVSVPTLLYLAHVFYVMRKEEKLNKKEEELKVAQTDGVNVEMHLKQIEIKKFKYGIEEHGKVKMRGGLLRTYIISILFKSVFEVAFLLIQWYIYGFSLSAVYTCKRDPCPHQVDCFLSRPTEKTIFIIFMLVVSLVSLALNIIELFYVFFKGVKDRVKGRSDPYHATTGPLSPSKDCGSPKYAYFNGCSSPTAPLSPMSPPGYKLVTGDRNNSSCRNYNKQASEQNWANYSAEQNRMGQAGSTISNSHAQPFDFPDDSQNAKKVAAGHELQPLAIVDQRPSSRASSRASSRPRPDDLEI
T1 sequence (P17302 2-382): as the sequence (P23242 2-382) above, with E123D, V163I, R242K, T250S, P252A, S256A, P262Q, S340N, A343S, V346L counted along it

B1: ALMB-0168 (antibody, V domains shown)
VH: EVQLVQSGAEVKKPGASVKVSCKASGYTFTSYYMYWVRQAPGQGLEWIGGINPSNAGTNFNEKFKNRATLTVDKSTSTAYMELSSLRSEDTAVYYCTREGNPYYTMNYWGQGTLVTVSS
VL: DVVMTQSPLSLPVTIGQPASISCKSSQSLLESDGKTYLNWLQQRPGQSPRRLIYLVSKLDSGVPDRFSGSGSGTDFTLKISRVEAEDVGVYYCWQGTHFPWTFGGGTKVEIKR
notes: also called anti-Cx43 antibody
For B1, a half-maximal response in assay [1] (EC50) required 41 mg/L. For the same molecule, in assay [2], the “EC50 of Cx43 hemichannel opening, EB staining, MOL-Y4 cells” value amounted to 2.33 mg/L and the “plasma ATP level in mice, luciferin/luciferase assay, against saline-treated mice” value is greater than 5 fold. In addition, the “EC50 of Cx43 hemichannel opening, EB staining, human osteocytes” value in assay [3] amounted to 3.97 mg/L. Moreover, the concentration for a half-maximal effect (EC50) (in general, the concentration at which the effect is half-maximal) in assay [4] came to 37.3 mg/L.

(Values after patent US20240391987A1 (ALAMAB THERAPEUTICS, published 2024).)
